Assay results reported in PMC9712121 (Nature, 2022).

Molecular target: the molecule itself
Assay: negative-stain EM; TNKS2 SAM at 104 μM on carbon, 2% uranyl acetate; 3D refinement with D1 symmetry, projections compared with the SAM–PARP model and PDB 5JRT

B1: TNKS2 SAM (867–940), wild type (domain or fragment, human, UniProt Q9H2K2 867-940, looked up)
chain: EKKEVPGVDFSITQFVRNLGLEHLMDIFEREQITLDVLVEMGHKELKEIGINAYGHRHKLIKGVERLISGQQGL
notes: Tankyrase 2 (TNKS2), human, SAM domain, residues 867-940; also called SAM domain
B1: binds.
